Patent US20180280488A1, “Methods and Compositions for Binding Complement C3 for Targeting of Immune Cells” (University of Alaska Anchorage, priority 2017, published 2018)

B1: ovalbumin (protein, UniProt P01012 2-386, looked up)
Ovalbumin: GSIGAASMEFCFDVFKELKVHHANENIFYCPIAIMSALAMVYLGAKDSTRTQINKVVRFDKLPGFGDSIEAQCGTSVNVHSSLRDILNQITKPNDVYSFSLASRLYAEERYPILPEYLQCVKELYRGGLEPINFQTAADQARELINSWVESQTNGIIRNVLQPSSVDSQTAMVLVNAIVFKGLWEKAFKDEDTQAMPFRVTEQESKPVQMMYQIGLFRVASMASEKMKILELPFASGTMSMLVLLPDEVSGLEQLESIINFEKLTEWTSSNVMEERKIKVYLPRMKMEEKYNLTSVLMAMGITDVFSSSANLSGISSAESLKISQAVHAAHAEINEAGREVVGSAEAGVDAASVSEEFRADHPFLFCIKHIATNAVLFFGRCVSP
notes: Non-encapsulated ovalbumin, model tumor antigen, matched to the encapsulated amount

Tests used:
[1] = test system: OVA-specific T cell hybridoma D011; assay: T cell activation: BMDC co-culture with OVA-specific reporter T cell hybridoma D011 (GFP); type: cell-based, mice; conditions: BMDC 24 hours with OVA treatments, D011 T cells 24 hours; mean±standard error (n=3)
Experimental: Bone marrow was extracted from adult BALB/c mice. Mice were euthanized and femur and humerus bones removed and cleaned of tissue. Bones were kept in RPMI in a sterile petri dish, and bone marrow was flushed from bones using RPMI and a 1 mL insulin syringe. Extracted bone marrow was filtered through a 100 μm nylon mesh filter and rinsed twice in RPMI. Bone marrow cells were then counted and plated at a density of 2×10^6 cells in culture medium (RPMI, 10% heat inactivated FBS, 1% penicillin/streptomycin). Granulocyte-macrophage colony stimulating factor (GM-CSF) and Interleukin-4 (IL-4) were added to the culture medium at 40 ng/mL and 20 ng/mL, respectively. Cells were incubated at 37° C. and medium with GM-CSF and IL-4 was replenished after 3 days. On day 6, non-adherent and loosely-adherent cells were harvested by pipetting and re-suspended in culture media.
10 μL of OPSS-liposomes containing OVA, control-liposomes containing OVA and free OVA matching the amount encapsulated in OPSS-liposomes (see liposome preparation) were incubated in 10 μL C3-positive and -negative serum for 1 hour at room temperature prior to addition to 80 μL of bone marrow-derived dendritic cells in RPMI (1% penicillin/streptomycin) containing 1.6×10^5 cells per well in a U-bottom plate. […] The co-cultures were then analyzed for T cell activation (GFP expression) by fluorescence microscopy and flow cytometry.

[2] = Liver toxicity assays (plasma AST, ALT); type: in vivo; conditions: A20-OVA mice, 4 days after last injection
Experimental: Mice were euthanized following therapy, 4 days after the last injection and blood was collected via cardiac puncture and placed in heparinized tubes. Plasma was separated from blood via centrifugation at 500×g for 15 minutes and frozen at −80° C. for subsequent analysis. Red blood cell lysis buffer (eBioscience) was added to the remaining blood for 10 minutes at room temperature. Samples were then prepared for flow cytometry analysis or frozen in culture media supplemented with 10% dimethyl sulfoxide for later use.
Mouse plasma levels of aspartate transaminase (AST) and alanine transaminase (ALT) were determined using kits purchased from BioAssay Systems (Hayward, Calif., USA). Plasma was collected from mice as previously described. Plasma samples were diluted 1:1 in assay buffer prior to addition to a Falcon flat-bottom microtest 96-well assay plate, black/clear bottom (Becton Dickinson Labware, Franklin Lakes, N.J., USA). Absorbance was measured at 340 nm at 5 and 10 minutes using a BioTek Synergy HT plate reader, and enzyme activity was calculated according to the protocol.

Molecule	T cell activation (GFP expression) [1] [%]	ALT in mouse plasma ([2]; normal range 15-84 U/L) [U/L]	AST in mouse plasma ([2]; normal range 54-298 U/L) [U/L]
ovalbumin [free OVA, Non-encapsulated ovalbumin, model tumor antigen, matched to the encapsulated amount]	14.4±0.8	–	–
B1	–	51.2±34.7	110.4±25.6
